Source: the supplement of paper PMC9876800

Test system: peptide library, one residue held at a place counted from the S/T acceptor
Experiment: relative phosphorylation of the sub-library (ratio to the mean residue at this position); higher = residue favoured
Procedure, shortened: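 Relative sub-library phosphorylation, a ratio to the mean residue at that position, was obtained by phosphorimaging and densitometry of spots on streptavidin membranes. Before capture, purified recombinant kinases were incubated for 90 min under kinase-specific conditions with 50 μM biotinylated degenerate peptide sub-libraries and 50 μM ATP spiked with γ-32P-ATP. Each sub-library fixed one residue at one position around a central Ser/Thr.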

MAP2K5, construct: Full length, human, sequence (Q13163 whole entry, looked up): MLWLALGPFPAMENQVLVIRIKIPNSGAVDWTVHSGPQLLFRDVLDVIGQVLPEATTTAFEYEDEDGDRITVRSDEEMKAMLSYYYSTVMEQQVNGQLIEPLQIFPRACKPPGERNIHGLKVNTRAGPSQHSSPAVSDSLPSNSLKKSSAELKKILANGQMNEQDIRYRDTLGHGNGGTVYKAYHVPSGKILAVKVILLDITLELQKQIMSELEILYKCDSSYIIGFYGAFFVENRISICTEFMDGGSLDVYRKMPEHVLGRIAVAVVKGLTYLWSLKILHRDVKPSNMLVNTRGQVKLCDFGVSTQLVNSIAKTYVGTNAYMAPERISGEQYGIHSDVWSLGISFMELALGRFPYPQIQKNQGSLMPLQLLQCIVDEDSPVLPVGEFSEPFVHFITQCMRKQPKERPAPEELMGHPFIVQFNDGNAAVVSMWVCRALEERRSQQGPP
MAP3K14, construct: aa327-673, human, sequence (Q99558 327-673, looked up): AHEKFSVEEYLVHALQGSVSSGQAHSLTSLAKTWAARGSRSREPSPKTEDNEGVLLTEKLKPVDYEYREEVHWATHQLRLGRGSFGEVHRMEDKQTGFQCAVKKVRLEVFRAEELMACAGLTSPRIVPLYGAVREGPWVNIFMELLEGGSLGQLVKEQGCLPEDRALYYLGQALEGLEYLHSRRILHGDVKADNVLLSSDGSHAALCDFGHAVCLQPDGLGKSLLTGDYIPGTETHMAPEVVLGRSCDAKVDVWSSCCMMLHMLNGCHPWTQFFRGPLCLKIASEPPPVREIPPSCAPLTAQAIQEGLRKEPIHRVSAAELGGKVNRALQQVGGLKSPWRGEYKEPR
HUNK, construct: Full length, human, sequence (P57058 whole entry, looked up): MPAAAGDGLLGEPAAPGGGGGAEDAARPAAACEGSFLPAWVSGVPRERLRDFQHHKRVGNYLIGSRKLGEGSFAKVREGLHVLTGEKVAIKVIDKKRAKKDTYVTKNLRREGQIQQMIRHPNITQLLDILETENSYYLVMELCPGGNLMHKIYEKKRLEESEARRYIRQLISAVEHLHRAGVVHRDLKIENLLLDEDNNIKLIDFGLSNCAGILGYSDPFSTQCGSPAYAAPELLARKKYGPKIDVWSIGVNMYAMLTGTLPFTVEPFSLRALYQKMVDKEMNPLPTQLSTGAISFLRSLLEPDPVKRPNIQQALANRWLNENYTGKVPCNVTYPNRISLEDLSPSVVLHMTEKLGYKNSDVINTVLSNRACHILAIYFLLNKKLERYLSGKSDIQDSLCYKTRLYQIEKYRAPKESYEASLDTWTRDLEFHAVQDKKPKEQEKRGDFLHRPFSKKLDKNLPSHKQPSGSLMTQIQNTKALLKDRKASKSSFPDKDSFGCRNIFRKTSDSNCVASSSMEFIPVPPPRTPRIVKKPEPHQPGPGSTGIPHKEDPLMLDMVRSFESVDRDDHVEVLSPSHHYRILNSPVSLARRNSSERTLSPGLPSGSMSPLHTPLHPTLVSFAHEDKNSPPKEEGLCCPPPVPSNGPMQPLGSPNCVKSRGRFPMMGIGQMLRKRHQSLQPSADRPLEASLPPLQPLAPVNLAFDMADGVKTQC
MAP3K1, construct: aa1174-end, human, sequence (Q13233 1174-1512, looked up): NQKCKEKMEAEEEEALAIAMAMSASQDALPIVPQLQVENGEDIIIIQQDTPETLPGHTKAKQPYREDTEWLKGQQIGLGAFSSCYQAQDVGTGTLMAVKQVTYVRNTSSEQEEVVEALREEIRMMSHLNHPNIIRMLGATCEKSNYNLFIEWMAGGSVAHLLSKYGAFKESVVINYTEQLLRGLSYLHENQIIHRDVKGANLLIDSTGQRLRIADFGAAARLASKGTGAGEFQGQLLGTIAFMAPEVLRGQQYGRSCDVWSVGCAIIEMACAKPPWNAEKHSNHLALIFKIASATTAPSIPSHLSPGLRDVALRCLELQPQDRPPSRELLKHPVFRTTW

HUNK, construct: Full length, human (from UniProt P57058)
relative phosphorylation
Details	at +1	at +2	at +3	at +4	at -1	at -2	at -3	at -4	at -5
A fixed	1.03	1.5	0.679	0.686	1.56	1.41	1.16	1.13	1.27
D fixed	0.435	0.428	2.19	1.05	0.948	0.95	0.524	0.889	0.9
E fixed	0.527	0.447	1.01	0.957	1.04	0.921	0.728	1.19	0.832
F fixed	1.58	0.842	1.37	1.85	0.461	0.831	0.927	0.798	0.759
G fixed	0.784	0.624	0.66	0.751	1.03	0.896	1.07	1.15	1.37
H fixed	0.814	1.65	1.04	0.811	0.795	1.05	1.97	0.947	1.09
I fixed	0.538	1.44	0.61	1.72	0.555	1	0.798	0.942	0.953
K fixed	0.713	0.591	0.493	0.609	1.38	0.725	0.726	1.02	1.23
L fixed	0.882	0.747	0.704	1.39	0.571	0.867	1.19	1.39	0.947
M fixed	1.81	0.549	0.945	1.71	1.01	0.946	1.3	1.04	0.811
N fixed	0.794	0.829	1.85	0.873	1.11	1.28	0.675	0.993	1.03
P fixed	0.301	0.355	0.287	0.64	1.06	0.395	0.961	0.786	0.917
Q fixed	1.73	0.582	0.661	0.712	1.17	1.3	0.749	0.797	0.725
R fixed	1.01	0.814	0.766	0.758	2.41	1.44	1.35	0.963	1.3
V fixed	0.701	2.16	0.599	0.735	0.576	1.25	0.559	0.833	0.842
W fixed	1.49	1.7	2.1	0.853	0.626	0.916	0.991	1.15	0.943
Y fixed	1.87	1.74	1.03	0.903	0.694	0.806	1.32	0.987	1.08
pThr fixed	1.16	1.58	0.532	0.85	0.689	1.65	0.827	0.821	0.727
pTyr fixed	0.97	1.71	0.92	0.972	0.873	0.669	0.897	0.783	0.806

MAP2K5, construct: Full length, human (from UniProt Q13163)
relative phosphorylation
Details	at +1	at +2	at +3	at +4	at -1	at -2	at -3	at -4	at -5
A fixed	0.719	0.806	0.742	0.876	0.985	1.01	1.02	0.982	0.924
D fixed	0.453	0.477	0.592	0.598	0.918	0.931	0.998	0.992	0.898
E fixed	0.47	0.454	0.583	0.62	0.73	0.732	0.889	0.982	0.828
F fixed	1.12	0.912	1.29	0.97	0.899	1.75	0.962	1.08	1.2
G fixed	0.703	0.748	0.949	0.998	1.19	0.942	1.16	1.08	0.963
H fixed	0.886	2.3	1.1	1.07	1.15	1.01	1.02	1.09	1.17
I fixed	1.52	0.717	0.919	0.898	0.706	0.696	0.744	0.74	0.856
K fixed	0.872	1.29	1.14	1.49	1.14	0.83	1.08	1.11	1.09
L fixed	1.2	0.711	1.01	0.836	1.07	0.841	0.846	0.783	0.884
M fixed	1.62	0.928	1.06	0.956	1.11	0.866	0.943	0.944	0.889
N fixed	0.836	0.935	0.963	0.891	1.08	0.855	0.906	0.947	0.894
P fixed	0.636	0.604	0.714	1.06	0.809	0.901	1.07	0.902	0.894
Q fixed	0.839	0.918	0.854	1.09	0.969	0.841	0.817	0.834	0.828
R fixed	1.1	1.53	1.36	1.43	1.5	1.23	1.54	1.24	1.19
V fixed	1.2	0.736	0.781	0.774	0.711	0.771	0.684	0.791	0.843
W fixed	1.7	1.36	1.64	1.24	0.875	1.37	1.18	1.38	1.34
Y fixed	1.14	1.57	1.3	1.21	1.17	1.43	1.14	1.12	1.32
pThr fixed	0.902	0.728	0.733	0.792	0.844	1.07	1.34	1.17	1.29
pTyr fixed	0.576	0.485	0.723	0.57	0.974	1.3	1.08	0.835	1.08

MAP3K1, construct: aa1174-end, human (from UniProt Q13233)
relative phosphorylation
Details	at +1	at +2	at +3	at +4	at -1	at -2	at -3	at -4	at -5
A fixed	0.537	1.1	0.749	0.741	0.7	1.08	1.07	1.01	1.04
D fixed	0.324	0.73	0.46	0.814	1.35	1.11	1.04	1.21	1.21
E fixed	0.309	0.439	0.395	0.711	0.98	0.858	1.14	1.08	1.23
F fixed	1.12	0.619	1.17	0.878	0.741	1.01	0.862	1.06	0.837
G fixed	0.785	0.9	0.977	1.14	1.22	1.31	1.44	1.33	1.67
H fixed	0.853	1.27	1.03	1.23	1.89	1.33	1.19	1.17	1.19
I fixed	2.35	0.826	1.35	1.13	0.522	0.69	0.849	0.721	0.812
K fixed	0.593	1.57	0.996	1.04	0.791	0.644	0.659	0.899	0.897
L fixed	1.31	0.49	1.35	0.914	0.711	1.03	0.772	0.715	0.565
M fixed	1.88	1.03	1.46	1.1	1.23	1.29	1.16	0.793	0.832
N fixed	0.688	1.38	0.727	1.02	1.57	1.26	0.989	0.996	1.09
P fixed	0.343	0.583	0.773	0.923	0.893	0.839	1.13	0.952	1.07
Q fixed	0.963	0.825	0.725	0.823	1.09	1.03	0.78	0.838	0.761
R fixed	0.837	2.5	1.24	1.6	1.38	0.832	0.857	0.954	1.17
V fixed	1.77	0.777	0.812	0.66	0.479	0.581	0.639	0.735	0.65
W fixed	1.19	0.798	1.41	1.19	0.599	0.943	1.27	1.54	0.897
Y fixed	1.15	1.17	1.36	1.08	0.855	1.16	1.15	0.982	1.09
pThr fixed	0.504	0.403	0.516	0.644	0.679	0.909	1.05	0.952	1.05
pTyr fixed	0.495	0.368	0.623	0.696	0.796	0.796	1.22	0.824	1.36

MAP3K14, construct: aa327-673, human (from UniProt Q99558)
relative phosphorylation
Details	at +1	at +2	at +3	at +4	at -1	at -2	at -3	at -4	at -5
A fixed	0.858	0.835	0.87	0.88	0.975	1.06	0.893	1	0.972
D fixed	0.726	0.707	0.858	0.865	0.8	0.709	0.687	0.783	0.764
E fixed	0.775	0.682	0.769	0.786	0.755	0.73	0.705	0.877	0.735
F fixed	1.21	0.85	0.978	0.96	0.787	0.923	0.751	0.89	1.04
G fixed	0.867	0.83	0.956	1.04	1.09	1.01	0.925	1.02	0.917
H fixed	0.973	1.15	1.11	1.04	1.16	1.08	1.08	1.06	1.05
I fixed	1	0.886	0.795	0.924	0.66	0.713	0.64	0.804	0.879
K fixed	1.08	1.68	1.36	1.36	1.49	1.19	1.92	1.53	1.38
L fixed	1.09	0.908	0.971	1.02	0.874	0.78	0.731	0.896	1.23
M fixed	1.26	0.844	0.875	0.962	0.966	1.02	0.753	0.977	1.04
N fixed	0.909	0.978	1.18	1.09	1.19	0.954	0.904	1.02	0.911
P fixed	0.69	0.817	0.935	1.25	1.02	0.763	0.843	0.924	1.05
Q fixed	1.09	0.918	0.979	1.06	1.04	1.18	0.97	1.03	0.921
R fixed	1.2	2.11	1.49	1.23	1.63	1.94	2.81	1.49	1.43
V fixed	0.988	0.892	0.81	0.866	0.687	0.76	0.652	0.843	0.808
W fixed	1.21	0.909	1.09	0.827	0.814	1.12	0.939	0.938	0.945
Y fixed	1.06	0.998	0.983	0.841	1.07	1.07	0.793	0.931	0.921
pThr fixed	0.918	0.837	0.843	0.923	0.678	0.769	0.827	0.899	0.877
pTyr fixed	0.869	0.849	0.889	0.774	0.829	0.824	1.01	0.941	0.985
